Test results: the supplement of paper PMC10065799, “High-throughput profiling of sequence recognition by tyrosine kinases and SH2 domains using bacterial peptide display” (eLife, 2023)

What was measured:
c-Src SH2 = experiment: SH2 binding enrichment of the phosphorylated peptide, bacterial display (enrichment ratio); higher = better substrate or ligand; peptides without Tyr show the background
Grb2 SH2 = Grb2 SH2 (UniProt P62993); experiment: as above
SHP2-C SH2 = experiment: as above
Hck = Hck (UniProt P08631); experiment: phosphorylation enrichment, bacterial display (enrichment ratio); higher = better substrate or ligand; peptides without Tyr show the background
Hck, sequence (P08631 whole entry, looked up): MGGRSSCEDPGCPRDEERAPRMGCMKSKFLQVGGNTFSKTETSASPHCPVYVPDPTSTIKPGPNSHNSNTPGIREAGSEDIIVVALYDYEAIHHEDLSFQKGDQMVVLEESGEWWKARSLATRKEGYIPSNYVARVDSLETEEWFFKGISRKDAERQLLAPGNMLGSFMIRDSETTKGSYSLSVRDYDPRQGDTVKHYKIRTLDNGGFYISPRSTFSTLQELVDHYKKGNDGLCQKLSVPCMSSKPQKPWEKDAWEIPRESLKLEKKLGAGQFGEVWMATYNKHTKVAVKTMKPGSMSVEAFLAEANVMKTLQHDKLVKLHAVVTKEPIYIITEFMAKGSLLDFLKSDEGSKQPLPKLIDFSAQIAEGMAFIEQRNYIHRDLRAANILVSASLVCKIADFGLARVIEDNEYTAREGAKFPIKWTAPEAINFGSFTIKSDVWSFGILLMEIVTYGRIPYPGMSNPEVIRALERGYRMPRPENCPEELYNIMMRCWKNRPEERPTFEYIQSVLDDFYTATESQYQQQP

AncSZ = experiment: as above
Jak2 = Jak2 (UniProt O60674); experiment: as above
EPHB1 = EPHB1 (UniProt P54762); experiment: as above
EPHB1, sequence (P54762 whole entry, looked up): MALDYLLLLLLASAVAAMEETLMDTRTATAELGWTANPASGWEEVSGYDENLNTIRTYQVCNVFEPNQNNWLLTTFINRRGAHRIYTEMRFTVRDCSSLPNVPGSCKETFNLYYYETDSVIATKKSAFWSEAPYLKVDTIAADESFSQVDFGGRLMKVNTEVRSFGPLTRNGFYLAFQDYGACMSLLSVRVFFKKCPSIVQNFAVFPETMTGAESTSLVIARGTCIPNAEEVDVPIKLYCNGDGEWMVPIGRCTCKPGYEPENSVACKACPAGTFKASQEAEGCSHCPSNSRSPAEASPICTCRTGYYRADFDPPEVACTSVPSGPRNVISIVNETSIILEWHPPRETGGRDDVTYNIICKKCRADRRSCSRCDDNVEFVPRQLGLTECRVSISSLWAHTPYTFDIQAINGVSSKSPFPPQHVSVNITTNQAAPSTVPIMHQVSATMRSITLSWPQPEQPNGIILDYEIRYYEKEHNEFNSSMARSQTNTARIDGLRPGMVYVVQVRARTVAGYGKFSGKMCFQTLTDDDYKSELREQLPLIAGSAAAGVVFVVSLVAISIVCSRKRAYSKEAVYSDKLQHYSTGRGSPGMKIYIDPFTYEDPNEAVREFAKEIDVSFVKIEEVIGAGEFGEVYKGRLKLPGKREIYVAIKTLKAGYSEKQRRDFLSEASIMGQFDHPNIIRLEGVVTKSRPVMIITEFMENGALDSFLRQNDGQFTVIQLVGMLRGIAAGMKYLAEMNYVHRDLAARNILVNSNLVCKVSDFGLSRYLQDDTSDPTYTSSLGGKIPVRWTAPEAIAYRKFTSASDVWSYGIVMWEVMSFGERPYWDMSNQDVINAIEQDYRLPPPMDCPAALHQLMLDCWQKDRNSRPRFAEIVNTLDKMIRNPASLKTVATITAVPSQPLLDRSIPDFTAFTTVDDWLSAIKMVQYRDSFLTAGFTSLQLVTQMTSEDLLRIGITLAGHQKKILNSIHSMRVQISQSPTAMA

Fyn = Fyn (UniProt P06241); experiment: as above
Fyn, sequence (P06241 whole entry, looked up): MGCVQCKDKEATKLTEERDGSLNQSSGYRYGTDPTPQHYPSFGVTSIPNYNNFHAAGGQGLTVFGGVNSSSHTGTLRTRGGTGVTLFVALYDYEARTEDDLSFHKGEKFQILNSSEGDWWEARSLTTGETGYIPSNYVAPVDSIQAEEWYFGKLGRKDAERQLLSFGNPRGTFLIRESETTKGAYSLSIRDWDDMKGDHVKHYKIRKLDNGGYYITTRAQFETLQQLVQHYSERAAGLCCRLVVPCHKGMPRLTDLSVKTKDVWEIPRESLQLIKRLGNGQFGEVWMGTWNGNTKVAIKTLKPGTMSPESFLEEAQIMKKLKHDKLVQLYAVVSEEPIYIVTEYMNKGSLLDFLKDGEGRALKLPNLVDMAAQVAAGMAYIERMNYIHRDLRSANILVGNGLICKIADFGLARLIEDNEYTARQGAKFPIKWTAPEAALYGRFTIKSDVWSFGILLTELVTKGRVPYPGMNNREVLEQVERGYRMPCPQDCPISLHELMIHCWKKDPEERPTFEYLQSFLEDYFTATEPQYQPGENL

c-Abl (mouse) = experiment: as above
MERTK = MERTK (UniProt Q12866); experiment: as above
FGFR3 = FGFR3 (UniProt P22607); experiment: as above
FGFR3, sequence (P22607 whole entry, looked up): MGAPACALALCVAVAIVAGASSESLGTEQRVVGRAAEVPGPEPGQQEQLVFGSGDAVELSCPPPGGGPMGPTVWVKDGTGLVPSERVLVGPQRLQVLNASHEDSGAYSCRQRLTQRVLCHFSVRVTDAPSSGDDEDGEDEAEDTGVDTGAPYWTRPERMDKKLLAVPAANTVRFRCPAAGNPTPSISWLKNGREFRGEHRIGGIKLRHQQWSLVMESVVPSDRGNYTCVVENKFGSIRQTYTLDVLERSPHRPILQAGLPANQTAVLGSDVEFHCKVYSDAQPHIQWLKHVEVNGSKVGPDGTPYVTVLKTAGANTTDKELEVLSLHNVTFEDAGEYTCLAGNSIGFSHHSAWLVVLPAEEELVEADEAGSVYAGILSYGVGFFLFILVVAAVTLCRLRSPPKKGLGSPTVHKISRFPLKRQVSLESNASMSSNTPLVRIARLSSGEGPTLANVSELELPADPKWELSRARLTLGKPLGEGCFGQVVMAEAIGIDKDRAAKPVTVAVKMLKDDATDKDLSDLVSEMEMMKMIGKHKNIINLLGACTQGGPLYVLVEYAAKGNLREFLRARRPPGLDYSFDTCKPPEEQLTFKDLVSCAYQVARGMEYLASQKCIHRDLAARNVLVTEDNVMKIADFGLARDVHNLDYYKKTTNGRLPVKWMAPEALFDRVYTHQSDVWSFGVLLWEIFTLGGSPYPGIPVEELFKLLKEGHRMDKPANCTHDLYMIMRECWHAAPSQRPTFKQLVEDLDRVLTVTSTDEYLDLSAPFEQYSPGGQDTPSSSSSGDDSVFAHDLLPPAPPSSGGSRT

FGFR1 = FGFR1 (UniProt P11362); experiment: as above
FGFR1, sequence (P11362 whole entry, looked up): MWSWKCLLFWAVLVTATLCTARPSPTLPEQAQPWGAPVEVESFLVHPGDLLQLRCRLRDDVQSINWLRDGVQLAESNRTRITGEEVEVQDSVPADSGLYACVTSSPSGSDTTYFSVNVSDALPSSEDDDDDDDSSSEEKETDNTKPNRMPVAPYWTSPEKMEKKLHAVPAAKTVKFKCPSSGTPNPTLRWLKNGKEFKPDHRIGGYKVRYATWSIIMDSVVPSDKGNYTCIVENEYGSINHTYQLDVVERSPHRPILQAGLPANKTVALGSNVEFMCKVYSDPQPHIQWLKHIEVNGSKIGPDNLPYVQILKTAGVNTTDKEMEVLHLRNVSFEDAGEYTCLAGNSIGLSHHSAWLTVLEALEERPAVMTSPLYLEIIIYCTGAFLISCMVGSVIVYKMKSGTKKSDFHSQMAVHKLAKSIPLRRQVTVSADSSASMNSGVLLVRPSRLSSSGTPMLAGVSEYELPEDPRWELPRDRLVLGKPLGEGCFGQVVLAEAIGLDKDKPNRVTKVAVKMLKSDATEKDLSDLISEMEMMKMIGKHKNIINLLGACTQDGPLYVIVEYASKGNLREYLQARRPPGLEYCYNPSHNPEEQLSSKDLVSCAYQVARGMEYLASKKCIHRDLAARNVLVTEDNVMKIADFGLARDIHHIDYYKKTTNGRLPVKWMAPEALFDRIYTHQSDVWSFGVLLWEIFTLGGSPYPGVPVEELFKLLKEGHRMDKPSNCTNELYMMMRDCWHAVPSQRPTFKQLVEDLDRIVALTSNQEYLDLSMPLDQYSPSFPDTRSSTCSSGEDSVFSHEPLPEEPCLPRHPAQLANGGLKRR

Fer (mouse) = experiment: as above
EPHB2 = EPHB2 (UniProt P29323); experiment: as above
EPHB2, sequence (P29323 whole entry, looked up): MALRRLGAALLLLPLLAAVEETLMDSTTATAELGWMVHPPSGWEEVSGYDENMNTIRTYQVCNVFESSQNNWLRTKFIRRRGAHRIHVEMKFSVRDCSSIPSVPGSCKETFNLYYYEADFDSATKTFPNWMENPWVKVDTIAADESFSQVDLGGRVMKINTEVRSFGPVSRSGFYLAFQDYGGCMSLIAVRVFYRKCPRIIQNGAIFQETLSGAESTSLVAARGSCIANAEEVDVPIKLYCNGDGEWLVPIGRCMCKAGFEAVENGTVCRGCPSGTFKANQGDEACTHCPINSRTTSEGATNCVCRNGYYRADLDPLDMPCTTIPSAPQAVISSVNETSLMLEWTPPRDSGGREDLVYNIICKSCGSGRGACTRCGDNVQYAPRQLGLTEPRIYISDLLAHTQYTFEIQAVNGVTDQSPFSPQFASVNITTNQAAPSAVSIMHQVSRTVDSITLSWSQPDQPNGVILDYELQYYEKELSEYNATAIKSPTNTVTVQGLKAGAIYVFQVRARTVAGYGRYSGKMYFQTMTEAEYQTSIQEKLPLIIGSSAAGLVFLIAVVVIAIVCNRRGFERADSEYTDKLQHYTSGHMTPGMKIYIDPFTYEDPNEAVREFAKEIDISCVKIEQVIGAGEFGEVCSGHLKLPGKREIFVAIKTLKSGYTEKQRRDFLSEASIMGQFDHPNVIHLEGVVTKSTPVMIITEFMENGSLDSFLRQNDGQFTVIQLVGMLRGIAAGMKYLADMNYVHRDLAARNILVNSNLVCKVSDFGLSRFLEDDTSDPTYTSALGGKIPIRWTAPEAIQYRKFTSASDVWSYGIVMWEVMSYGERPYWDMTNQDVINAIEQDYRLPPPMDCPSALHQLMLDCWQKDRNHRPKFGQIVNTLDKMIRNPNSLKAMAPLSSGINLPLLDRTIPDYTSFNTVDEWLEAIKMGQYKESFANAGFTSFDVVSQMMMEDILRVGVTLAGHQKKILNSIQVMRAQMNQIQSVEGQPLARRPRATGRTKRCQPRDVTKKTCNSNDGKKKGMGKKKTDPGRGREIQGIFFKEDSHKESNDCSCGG

Fes = Fes (UniProt P07332); experiment: as above
c-Src = experiment: as above
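Wherever SH2 binding enrichment of the phosphorylated peptide, bacterial display is given: peptide library displayed on the E. coli surface as eCPX fusions, selected cells deep-sequenced, score is each peptide's frequency after selection divided by its frequency in the input.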
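Wherever phosphorylation enrichment, bacterial display is given: 11-residue human phosphosite peptides and single-mutation variants displayed on the E. coli surface, counted by deep sequencing, each peptide's frequency after selection divided by its frequency in the unselected input library; frequency after pTyr selection over input frequency; kinase dosed for 20-30% of maximal phosphorylation in three min.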

Grb2 SH2, sequence (P62993 whole entry, looked up): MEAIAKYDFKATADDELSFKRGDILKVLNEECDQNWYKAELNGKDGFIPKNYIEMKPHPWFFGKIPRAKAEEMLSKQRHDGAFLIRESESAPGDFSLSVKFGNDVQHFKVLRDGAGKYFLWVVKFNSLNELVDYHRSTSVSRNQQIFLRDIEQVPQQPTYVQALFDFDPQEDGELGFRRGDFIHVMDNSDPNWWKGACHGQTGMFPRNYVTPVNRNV

Row | Sequence | SH2 binding enrichment (c-Src SH2) | SH2 binding enrichment (Grb2 SH2) | SH2 binding enrichment (SHP2-C SH2) | phosphorylation enrichment (Hck) | phosphorylation enrichment (AncSZ) | phosphorylation enrichment (Jak2) | phosphorylation enrichment (EPHB1) | phosphorylation enrichment (Fyn) | phosphorylation enrichment (c-Abl (mouse)) | phosphorylation enrichment (MERTK) | phosphorylation enrichment (FGFR3) | phosphorylation enrichment (FGFR1) | phosphorylation enrichment (Fer (mouse)) | phosphorylation enrichment (EPHB2) | phosphorylation enrichment (Fes) | phosphorylation enrichment (c-Src)
1 | FEREQYADRAR [RBM4_Y355_YF] | 0.536 | 0.956 | 0.567 | 0.426 | 0.626 | 0.515 | 0.414 | 0.484 | 0.464 | 0.331 | 0.587 | 0.426 | 0.394 | 0.446 | 0.727 | 0.396
2 | FETDFYQKGGK [INSR_Y1190_R1191Q_YF] | 0.564 | 0.797 | 0.62 | 0.472 | 0.633 | 0.526 | 0.834 | 0.519 | 0.523 | 0.421 | 0.503 | 0.411 | 0.47 | 0.355 | 0.88 | 0.427
3 | FFCRWYRNQKS [EREG_Y144_R147Q_YF] | 0.496 | 0.603 | 0.657 | 0.596 | 0.775 | 0.488 | 0.493 | 0.482 | 0.855 | 0.497 | 0.478 | 0.347 | 0.513 | 0.489 | 0.6 | 0.57
4 | FFDANYDGKEF [MAPRE2_Y162_YF] | 0.501 | 0.68 | 0.759 | 0.601 | 1.11 | 0.957 | 0.558 | 0.529 | 0.611 | 0.424 | 0.695 | 0.824 | 0.446 | 0.666 | 1.42 | 0.443
5 | FGISGYVVDSV [MAP2K3_Y214_L215V] | 0.719 | 0.742 | 0.605 | 0.49 | 0.775 | 0.761 | 0.543 | 0.449 | 0.532 | 0.443 | 0.623 | 0.478 | 0.421 | 0.517 | 0.956 | 0.412
6 | FGLQAYTEVKT [ALDH2_Y502_YF] | 7.17 | 0.869 | 2.52 | 0.657 | 1.03 | 1.13 | 0.715 | 0.498 | 0.727 | 0.452 | 0.783 | 0.584 | 0.608 | 0.609 | 1.34 | 0.414
7 | FGPPQYNIQFS [ERBB2IP_Y977_YF] | 0.592 | 0.907 | 0.806 | 0.405 | 0.768 | 0.741 | 0.524 | 0.364 | 0.641 | 0.311 | 0.508 | 0.447 | 0.342 | 0.44 | 0.779 | 0.395
8 | FGRTFYNQANM [MCCC2_Y196_I200N] | 0.497 | 0.706 | 0.556 | 0.503 | 0.939 | 0.994 | 0.786 | 0.377 | 0.842 | 0.411 | 0.695 | 0.433 | 0.51 | 0.509 | 1.06 | 0.493
9 | FHKALYTVRTF [PDE6C_Y266_S270T_YF] | 0.536 | 0.853 | 0.722 | 0.67 | 0.914 | 0.907 | 0.567 | 0.581 | 0.838 | 0.523 | 0.691 | 0.582 | 0.427 | 0.529 | 1.02 | 0.729
10 | FIGCIYLYLTK [GARS1_Y414_R412C] | 1.04 | 1.51 | 1.53 | 0.373 | 1.02 | 1.28 | 0.614 | 0.393 | 0.746 | 0.435 | 0.79 | 0.535 | 0.486 | 0.451 | 0.96 | 0.704
11 | FIILIYAMKKK [SLCO1B1_Y645_YF] | 0.965 | 1.83 | 1.66 | 0.465 | 0.323 | 0.447 | 0.179 | 0.321 | 0.51 | 1.35 | 0.377 | 0.509 | 0.354 | 0.385 | 0.583 | 0.32
12 | FKGKKYKPLDL [RPL35_Y78_YF] | 0.479 | 0.849 | 0.571 | 0.48 | 0.577 | 0.486 | 0.421 | 0.467 | 0.544 | 0.337 | 0.413 | 0.376 | 0.481 | 0.361 | 0.571 | 0.533
13 | FKNGDYSEVMK [LCT_Y1638_N1639S] | 1.84 | 1.11 | 0.739 | 0.413 | 0.697 | 0.686 | 0.859 | 0.42 | 0.429 | 0.433 | 0.468 | 0.57 | 0.362 | 0.877 | 0.709 | 0.574
14 | FKRAVYCIIGR [NUP93_Y391_YF] | 1.06 | 1.01 | 0.686 | 0.938 | 0.952 | 0.772 | 0.576 | 0.682 | 0.776 | 1.13 | 0.536 | 0.511 | 0.529 | 0.617 | 0.9 | 0.809
15 | FLAVGDHKPHI [IDS_Y225_Y225D] | 0.478 | 0.824 | 0.857 | 0.379 | 0.431 | 0.41 | 0.375 | 0.433 | 0.365 | 0.271 | 0.35 | 0.384 | 0.197 | 0.422 | 0.462 | 0.327
16 | FLENFYDLKKD [MMP3_Y42_YF] | 0.519 | 0.821 | 0.788 | 1.92 | 1.24 | 0.922 | 0.453 | 2.57 | 0.663 | 0.549 | 0.551 | 0.452 | 0.472 | 0.563 | 1.02 | 1.9
17 | FLLRVYSIFSK [SGCE_Y38_T36R] | 1.51 | 2.26 | 1.84 | 0.504 | 0.886 | 0.804 | 0.321 | 0.437 | 0.987 | 0.634 | 1.28 | 0.574 | 0.433 | 0.402 | 1.02 | 1.49

Row | Sequence | SH2 binding enrichment (c-Src SH2) | SH2 binding enrichment (Grb2 SH2) | SH2 binding enrichment (SHP2-C SH2) | phosphorylation enrichment (Hck) | phosphorylation enrichment (AncSZ) | phosphorylation enrichment (Jak2) | phosphorylation enrichment (EPHB1) | phosphorylation enrichment (Fyn) | phosphorylation enrichment (c-Abl (mouse)) | phosphorylation enrichment (MERTK) | phosphorylation enrichment (FGFR3) | phosphorylation enrichment (FGFR1) | phosphorylation enrichment (Fer (mouse)) | phosphorylation enrichment (EPHB2) | phosphorylation enrichment (Fes) | phosphorylation enrichment (c-Src)
18 | FLNSIYKCRDE [ROS1_Y2227_S2229C] | 0.518 | 0.895 | 0.667 | 0.572 | 0.953 | 1.24 | 0.463 | 0.488 | 0.78 | 0.311 | 0.662 | 0.579 | 0.477 | 0.514 | 0.909 | 0.774
19 | FRPPFYHRNCM [HGD_Y334_YF] | 1 | 0.935 | 0.913 | 0.48 | 0.921 | 0.761 | 0.417 | 0.472 | 0.649 | 0.426 | 0.605 | 0.426 | 0.489 | 0.489 | 1.04 | 0.402
20 | FRVAGYKTQGG [TIA1_Y383_E384K_YF] | 0.489 | 0.825 | 0.678 | 0.401 | 0.533 | 0.558 | 0.379 | 0.668 | 0.686 | 0.436 | 0.468 | 0.417 | 0.273 | 0.468 | 0.624 | 0.342
21 | FSLPAFMDRRD [COX4I1_Y38_Y38F] | 0.639 | 1.02 | 1.03 | 0.41 | 0.947 | 0.807 | 0.396 | 0.458 | 0.497 | 0.4 | 0.537 | 0.473 | 0.455 | 0.456 | 0.81 | 0.459
22 | FSTPPYLLEAA [BRIP1_Y921_S919P_YF] | 0.607 | 0.952 | 0.655 | 0.434 | 0.95 | 0.909 | 0.521 | 0.619 | 0.76 | 0.497 | 0.707 | 0.63 | 0.579 | 0.601 | 1 | 0.669
23 | FTFDPYSEEDP [IL2RB_Y387_YF] | 0.651 | 1.09 | 0.823 | 0.562 | 1.08 | 1.17 | 0.694 | 0.839 | 0.772 | 0.426 | 0.698 | 0.61 | 0.686 | 0.642 | 1.23 | 1.18
24 | FYLGAYDRFLP [SLC22A5_Y486_V481F] | 1.16 | 1.18 | 1.37 | 3.38 | 1.37 | 1.11 | 0.938 | 2.4 | 0.829 | 4.1 | 0.831 | 0.712 | 1.22 | 2.06 | 1.28 | 3.62
25 | GADDSYFTARS [ZAP70_Y492_YF] | 0.402 | 0.723 | 0.566 | 0.444 | 0.657 | 0.577 | 0.299 | 0.457 | 0.401 | 0.406 | 0.51 | 0.557 | 0.417 | 0.44 | 0.79 | 0.417
26 | GANSEYIIAEK [ECHS1_Y35_F33S] | 0.435 | 1 | 0.487 | 0.587 | 1.26 | 1.1 | 0.711 | 0.64 | 0.764 | 0.581 | 0.61 | 0.483 | 0.468 | 0.618 | 1.01 | 0.646
27 | GARGRYIMGGP [TNK1_Y277_V278I] | 0.606 | 0.811 | 0.674 | 0.428 | 0.433 | 0.531 | 0.39 | 0.433 | 0.512 | 0.468 | 0.4 | 0.789 | 0.4 | 0.462 | 0.547 | 0.522
28 | GASRRYGSGVS [NEU1_Y242_W240R] | 0.383 | 0.852 | 0.565 | 0.437 | 0.582 | 0.436 | 0.429 | 0.384 | 0.437 | 0.509 | 0.439 | 0.393 | 0.43 | 0.48 | 0.539 | 0.41
29 | GDPTEYFITAI [IGSF22_Y501_S503I_YF] | 0.499 | 0.786 | 0.467 | 0.461 | 1.55 | 1.31 | 0.584 | 0.445 | 0.911 | 0.482 | 1.11 | 1.07 | 0.404 | 0.644 | 1.08 | 0.555
30 | GEDPIYVTLEG [RTKtide_2018] | 0.718 | 0.906 | 0.485 | 3.44 | 1.81 | 1.2 | 5.64 | 5.05 | 1.7 | 2.29 | 3.4 | 4.71 | 3.86 | 6.76 | 1.47 | 3.9
31 | GEYYRYLAEVA [YWHAG_Y133_D129E] | 0.669 | 0.827 | 0.848 | 1.4 | 2.12 | 4.37 | 1.13 | 1.52 | 1.88 | 1.73 | 7.42 | 9.65 | 0.374 | 2.05 | 0.858 | 2.34
32 | GFEEAYSVFKK [PAFAH1B1_Y28_YF] | 0.605 | 1.03 | 1.76 | 2.51 | 0.803 | 0.514 | 0.339 | 1.29 | 0.756 | 0.544 | 0.412 | 0.423 | 0.365 | 0.379 | 0.696 | 3.97
33 | GFEEAYSVSKK [PAFAH1B1_Y28_F31S_YF] | 0.505 | 1.01 | 0.688 | 0.487 | 0.697 | 0.853 | 0.355 | 0.403 | 0.464 | 0.377 | 0.492 | 0.374 | 0.39 | 0.353 | 0.764 | 0.65
